Assay results from patent US20220281936.

Key:
[1] = target: IL12Rβ1-VP-IL12
[2] = target: T1, Mouse IL12 (unmodified)
T1 chain 1: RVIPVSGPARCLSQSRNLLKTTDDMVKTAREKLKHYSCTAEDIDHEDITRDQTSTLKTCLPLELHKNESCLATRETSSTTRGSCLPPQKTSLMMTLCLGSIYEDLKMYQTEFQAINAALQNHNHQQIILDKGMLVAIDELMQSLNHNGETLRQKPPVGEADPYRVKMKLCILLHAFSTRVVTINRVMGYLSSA
T1 chain 2: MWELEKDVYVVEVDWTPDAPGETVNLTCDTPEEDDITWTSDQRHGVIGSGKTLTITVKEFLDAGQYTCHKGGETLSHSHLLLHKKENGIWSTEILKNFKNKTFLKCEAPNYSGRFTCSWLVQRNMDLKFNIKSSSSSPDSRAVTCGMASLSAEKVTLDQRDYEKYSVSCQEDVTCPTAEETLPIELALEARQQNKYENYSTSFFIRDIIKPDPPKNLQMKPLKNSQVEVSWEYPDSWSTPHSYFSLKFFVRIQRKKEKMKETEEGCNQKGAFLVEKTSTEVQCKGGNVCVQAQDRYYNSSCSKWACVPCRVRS

B1: Recombinant mouse MMP9 (protein)
chain: FQTFKGLKWDHHNITYWIQNYSEDLPRDMIDDAFARAFAVWGEVAPLTFTRVYGPEADIVIQFGVAEHGDGYPFDGKDGLLAHAFPPGAGVQGDAHFDDDELWSLGKGVVIPTYYGNSNGAPCHFPFTFEGRSYSACTTDGRNDGTPWCSTTADYDKDGKFGFCPSERLYTEHGNGEGKPCVFPFIFEGRSYSACTTKGRSDGYRWCATTANYDQDKLYGFCPTRVDATVVGGNSAGELCVFPFVFLGKQYSSCTSDGRRDGRLWCATTSNFDTDKKWGFCPDQGYSLFLVAAHEFGHALGLDHSSVPEALMYPLYSYLEGFPLNKDDIDGIQYLYGRGSKPDPRPPATTTTEPQPTAPPTMCPTIPPTAYPTVGPTVGPTGAPSPGPTSSPSPGPTGAPSPGPTAPPTAGSSEASTESLSPADNPCNVDVFDAIAEIQGALHFFKDGWYWKFLNHRGSPLQGPFLTARTWPALPATLDSAFEDPQTKRVFFFSGRQMWVYTGKTVLGPRSLDKLGLGPEVTHVSGLLPRRLGKALLFSKGRVWRFDLKSQKVDPQSVIRVDKEFSGVPWNSHDIFQYQDKAYFCHGKFFWRVSFQNEVNKVDHEVNQVDDVGYVTYDLLQCP
proteolytic cleavage, SDS-PAGE (30 min, 37 C) [1]: MMP2 and MMP9 fully cleaved the IL12Rβ1 portion, yielding IL12 heterodimer (-60 kDa)
proteolytic cleavage, SDS-PAGE [2]: These enzymes had no effect on IL12 itself
